{
  "source": "patent US8604172B2",
  "about": "“Humanized antibody compositions and methods for binding lysophosphatidic acid” (Lpath, Inc., priority 2009, dated 2013)",
  "molecules": {"B1": {"name": "LT3000: Murine anti-LPA monoclonal antibody clone B7, IgG1k, renamed Lpathomab, also known as LT3000; hybridoma 504B7.1, ATCC PTA-8420 (antibody, V domains shown)", "VH": "QVQLQQSGAELVRPGTSVKVSCKASGYGFINYLIEWIKQRPGQGLEWIGLINPGSDYTNYNENFKGKATLTADKSSSTAYMHLSSLTSEDSAVYFCARRFGYYGSGNYFDYWGQGTTLTVSS", "VL": "DVVMTQTPLSLPVSLGDQASISCTSGQSLVHINGNTYLHWYLQKPGQSPKLLIYKVSNLFSGVPDRFSGSGSGTDFTLKISRVEAEDLGVYFCSQSTHFPFTFGTGTKLEIK"}},
  "key": {"[1]": {"system": "selected human cancer cell lines", "assay": "LPA-induced cancer cell proliferation", "assay_type": "cell-based", "conditions": "addition of anti-LPA mAb", "experimental": "LPA is a potent growth factor supporting cell survival and proliferation by stimulation of Gi, Gq and G12/13 via GPCR-receptors and activation of downstream signaling events. Cell lines were tested for their proliferative response to LPA ([…]). Cell proliferation was assayed by using the cell proliferation assay kit from Chemicon (Temecula Calif.) (Panc-1) and the Cell-Blue titer from Pierce (Caki-1). Each data point is the mean of three independent experiments. […] Even though tumor-derived cells normally have high basal levels of proliferation, LPA appears to further augment proliferation in most tumor cell lines. Anti-LPA mAbs (B7 and B58) were assessed for the ability to inhibit LPA-induced proliferation in selected human cancer cell lines."}, "[2]": {"system": "neovascularization", "assay": "Classical angiogenesis models", "assay_type": "in vivo", "conditions": "two classical angiogenesis models"}, "[3]": {"system": "SKOV3 cell migration", "assay": "SKOV3 migration assay", "assay_type": "cell-based, human", "conditions": "Lpathomab 150 μg/mL; 1 μM 18:1 LPA; n = 3"}, "[4]": {"assay": "Competition ELISA specificity, competitor DSPA", "assay_type": "binding", "conditions": "maximum inhibition, n = 3", "experimental": "The specificity of the anti-LPA mAbs was assessed for their binding to LPA related biolipids such as distearoyl-phosphatidic acid, lysophosphatidylcholine, S1P, ceramide and ceramide-1-phosphate."}, "[5]": {"system": "renal cell carcinoma (Caki-1) cells", "assay": "Cell monolayer scratch assay, Caki-1", "assay_type": "cell-based, human", "conditions": "mAb 10 μg/ml", "experimental": "An important characteristic of metastatic cancers is that the tumor cells escape contact inhibition and migrate away from their tissue of origin. […] Accordingly, we tested the ability of anti-LPA mAb to block LPA-dependent cell migration in several human cancer cell lines by using the cell monolayer scratch assay. Cells were seeded in 96 well plates and grown to confluence. After 24 h of starvation, the center of the wells was scratched with a pipette tip. In this art-accepted “scratch assay,” the cells respond to the scratch wound in the cell monolayer in a stereotypical fashion by migrating toward the scratch and close the wound. Progression of migration and wound closure are monitored by digital photography at 10× magnification at desired timepoints. Cells were not treated (NT), treated with LPA ([…]) with or w/o mAb B7 (10 μg/ml) or an isotype matching non-specific antibody (NS) (10 μg/ml). In untreated cells, a large gap remains between the monolayer margins following the scratch. LPA-treated cells in contrast, have only a small gap remaining at the same timepoint, and a few cells are making contact across the gap."}, "[6]": {"assay": "Surface plasmon resonance, 12:0 LPA on GLC sensor chip", "assay_type": "binding", "experimental": "All binding data were collected on a ProteOn optical biosensor (BioRad, Hercules Calif.). 12:0 LPA-thiol and 18:0 LPA-thiol were coupled to a maleimide modified GLC sensor chip (Cat. No 176-5011). First, the GLC chip was activated with an equal mixture of sulfo-NHS/EDC for seven minutes followed by a 7 minute blocking step with ethyldiamine. Next sulfo-MBS (Pierce Co., cat #22312) was passed over the surfaces at a concentration of 0.5 mM in HBS running buffer (10 mM HEPES, 150 mM NaCl, 0.005% tween-20, pH 7.4). LPA-thiol was diluted into the HBS running buffer to a concentration of 10, 1 and 0.1 uM and injected for 7 minutes producing 3 different density LPA surfaces (˜100, ˜300 and ˜1400 RU). Next, binding data for the humanized antibodies was collected using a 3-fold dilution series starting with 25 nM as the highest concentration (original stocks were each diluted 1 to 100). Surfaces were regenerated with a 10 second pulse of 100 mM HCl. All data were collected at 25° C. Controls were processed using a reference surface as well as blank injections. […] In order to extract estimates of the binding constants, data from the varying antibody concentrations were globally fit using 1-site and 2-site models. This produced estimates of the affinity for the bivalent (site 1) and monovalent site (site 2)."}, "[7]": {"system": "SKOV3 cell invasion", "assay": "SKOV3 invasion assay", "assay_type": "cell-based, human", "conditions": "Lpathomab (15 mg/mL); 2 μM 14:0 LPA; n = 2"}, "[8]": {"assay": "Specificity of LT3000 against other lipids and proteins", "assay_type": "binding", "conditions": "over 100 lipids and proteins incl. over 20 bioactive lipids", "source_text": "The murine antibody is a full-length IgG1k isotype antibody composed of two identical light chains and two identical heavy chains with a total molecular weight of 155.5 kDa."}, "[9]": {"system": "IL-6 release in SKOV3 cells", "assay": "LPA-induced IL-6 release in SKOV3 cells", "assay_type": "cell-based, human", "conditions": "Lpathomab 600 μg/mL; 1 μM 18:1 LPA; n = 3", "experimental": "Anti-LPA antibodies inhibit the LPA-dependant release of human CXCL8/IL-8 in conditioned media of SKOV3 ovarian cells. SKOV3 cells (Lot No 4255558, passage 14) were harvested with 2 ml of 1× Trypsin EDTA (Mediatech Inc, Cat. No 25-053-CV) and resuspended in 8 ml of complete medium (10% FBS, Mediatech Inc. Cat. no 35-011-CV). The cells were centrifuged for 5 min ([…]) and re-suspended in 5 ml of complete medium. Cells were counted in duplicate with 0.4% Trypan blue (10 ul cells plus 90 ul Trypan blue, Invitrogen, Cat. No 15250-061) using a hemocytometer. In a 96-well plate, 1×10^5 cells per well were seeded (final volume 100 ul/well). The cells were allowed to attach and form a confluent monolayer by incubating overnight at 37° C. On the following day, cells were gently washed two times with minimum media (1 mg/ml BSA in McCoy's medium with L-glutamine, Mediatech, Cat. No 10-050-CV). […] The CXCL8/IL-8 levels in each supernatant were measured using the Quantikine human CXCL8/IL-8 ELISA kit according to vendor instructions (R&D Systems, Minneapolis Minn., Cat. No D8000C). The IL-6 levels were measured by ELISA using the Quantikine human IL-6 immunoassay kit (R&D systems, Cat. No. D6050). Data were analyzed by one-way ANOVA followed by Bonferroni's post test and expressed as human IL-8 or human IL-6 fold increase."}, "[10]": {"assay": "Solubility", "assay_type": "physicochemical", "conditions": "6.6 mM phosphate, 154 mM sodium chloride, pH 7.4"}},
  "note": "Like-named read-outs stand apart in the source and are kept apart here. Marks after values point to notes of the source that are not given here.",
  "data": [
    {"molecule": "B1", "values": [
      {"measurement": "LPA-induced increase in proliferation", "setting": "[1]", "value": "mitigated"},
      {"measurement": "neovascularization", "setting": "[2]", "value": "inhibited"},
      {"measurement": "Migration, % Inhibition (over LPA taken as 100)", "setting": "[3]", "value": "35* %"},
      {"measurement": "MI (%), DSPA", "setting": "[4]", "value": 0, "unit": "%"},
      {"measurement": "LPA-stimulated migration", "setting": "[5]", "value": "inhibitory effect"},
      {"measurement": "Kd", "setting": "[6]; first value (site 1, bivalent), read-out: KD (C12)", "value": 0.027, "unit": "nM"},
      {"measurement": "Kd", "setting": "[6]; value in parentheses (site 2, monovalent), read-out: KD (C12), value in parentheses", "value": 0.007, "unit": "nM"},
      {"measurement": "Invasion, % Inhibition (over LPA taken as 100)", "setting": "[7]", "value": "95* %"},
      {"measurement": "binding affinity for other bioactive lipids and proteins", "setting": "[8]", "value": "no binding affinity"},
      {"measurement": "IL-6 Release, % Inhibition (over LPA taken as 100)", "setting": "[9]", "value": "23* %"},
      {"measurement": "Solubility", "setting": "[10]", "value": ">40 mg/mL in 6.6 mM phosphate, 154 mM sodium"}
    ]}
  ]
}
